The target in experiment [1] is T1, Radiolabeled SDF-1α (Perkin-Elmer) (UniProt P48061-2 22-89).
T1 construct: also called radioligand
As to the kind of experiment: radioligand binding: fixed radiolabeled SDF-1α with CXCR3 lipoparticles, filtration, gamma counting.

For experiment [2], the target named is T2, SDF-1 (unlabeled chemokine, 8 kDa) (UniProt P48061-2 22-89).
T2 construct: also called 8 kDa natural ligand (SDF-1); cold ligand (Peprotech)
The experiment can be described thus: radioligand competition on CXCR4 lipoparticles: increasing cold SDF-1 against 0.1 nM radiolabeled SDF-1α, 1 h at room temperature, filtration through GF/C filters, gamma counting [box at the upper right]. Background: In a radioligand displacement assay an active substance lowers the binding of a labelled ligand.

In experiment [3] the target is T3, Protein A (ProA) beads bearing no antibody (Staphylococcal, UniProt P38507 37-477).
T3 construct: also called no antibody control
The experiment can be described thus: fluorescence microscopy of Protein A beads without antibody, probed with fluorescent lipoparticles containing CXCR4.

A word on the Kd: it is the free concentration of one partner at which half of the binding sites on the other are occupied at equilibrium, for simple one-to-one binding. Read a high Kd as lower affinity.

B1: CXCR3 incorporated into lipoparticles (receptor, UniProt P49682 1-368, looked up)
chain: MVLEVSDHQVLNDAEVAALLENFSSSYDYGENESDSCCTSPPCPQDFSLNFDRAFLPALYSLLFLLGLLGNGAVAAVLLSRRTALSSTDTFLLHLAVADTLLVLTLPLWAVDAAVQWVFGSGLCKVAGALFNINFYAGALLLACISFDRYLNIVHATQLYRRGPPARVTLTCLAVWGLCLLFALPDFIFLSAHHDERLNATHCQYNFPQVGRTALRVLQLVAGFLLPLLVMAYCYAHILAVLLVSRGQRRLRAMRLVVVVVVAFALCWTPYHLVVLVDILMDLGALARNCGRESRVDVAKSVTSGLGYMHCCLNPLLYAFVGVKFRERMWMLLLRLGCPNQRGLQRQPSSSRRDSSWSETSEASYSGL
notes: whole, on cells
Take B1: in experiment [1], the binding result is “no binding (tested: about 1.25 ug lipoparticles)”.

B2: CXCR4 (chemokine receptor, GPCR) incorporated into lipoparticles (receptor, UniProt P61073 1-352, looked up)
chain: MEGISIYTSDNYTEEMGSGDYDSMKEPCFREENANFNKIFLPTIYSIIFLTGIVGNGLVILVMGYQKKLRSMTDKYRLHLSVADLLFVITLPFWAVDAVANWYFGNFLCKAVHVIYTVNLYSSVLILAFISLDRYLAIVHATNSQRPRKLLAEKVVYVGVWIPALLLTIPDFIFANVSEADDRYICDRFYPNDLWVVVFQFQHIMVGLILPGIVILSCYCIIISKLSHSKGHQKRKALKTTVILILAFFACWLPYYIGISIDSFILLEIIKQGCEFENTVHKWISITEALAFFHCCLNPILYAFLGAKFKTSAQHALTSVSRGSSLKILSKGKRGGHSSVSTESESSSFHSS
notes: whole, on cells; also called CXCR4-lipoparticles; CXCR4-containing lipoparticles
The molecule B2 displayed a Kd in experiment [2] of 8.53 nM. Moreover, the binding result in experiment [3] is “no binding”.
